Measurements published in US20250051463A1, “CD123 ANTIBODY-DRUG CONJUGATES AND METHODS OF USING THE SAME” (ASTRAZENECA AB, priority 2023, published 2025).

What was measured:
HPAEC = assay: CellTiter-Glo cell viability, 3 days; type: cell-based
Method: (§1) The CD123-expressing endothelial cell lines HUVEC and HPAEC and control cell lines RPMI-8226 (high CD123 expressing) and K562 (low expressing or negative for CD123) were cultured and co-incubated with Comparator-1 ADC, NIP228-SG3932 (isotype control for HT12-GL-SG3932) HT12-GL-SG3932, or CD123 mAb (HT12-GL) for 3 days at concentrations ranging from 0.0017 to 520 μg/mL for CD123 mAb, HT12-GL-SG3932, or NIP228-SG3932) or 0.0010 to 320 μg/mL for IMGN-IGN). Cell viability was assessed by CellTiter-Glo Cell Viability Assay and IC50 for viability was calculated (when possible) for each compound for each cell line. Expression of CD123 was assessed by western blot surface expression or by flow cytometry (FIG. 9C-9H).

HUVEC = assay: CellTiter-Glo cell viability, 3 days; type: cell-based
Method: as §1

K562 = assay: CellTiter-Glo cell viability, 3 days; type: cell-based
Method: as §1

RPMI-8226 = assay: CellTiter-Glo cell viability, 3 days; type: cell-based
Method: as §1

[1] = test system: subcutaneous EOL-1 tumors; assay: EOL-1 subcutaneous xenograft study; type: in vivo, Nude mice; settings: 0.24 mg/kg at a single dose
Method: EOL-1 cells that express about 2,000 CD123/IL3Rα per cell were maintained in the RPMI-1640 medium containing 10% heat-inactivated FBS and were cultured in a humidified atmosphere of 5% CO2 and at a temperature of 37° C. On the day of implantation, cells were spun down at 1500 rpm for 5 minutes, counted, and resuspended to a final concentration of 50×10^6 cells/mL in PBS. Female Nude mice were each injected subcutaneously in the right flank with 10×10^6 cells in 200 μL volume. When average tumor volume reached ˜150-250 mm^3 on Day 9, mice were randomized into treatment groups using the Matched Distribution method built into the Study Director software.
Test and control ADC were diluted from a stock solution with vehicle buffer (20 mM histidine, 240 mM sucrose, 0.02% Polysorbate 80, pH 6.0) and were administered as a single intravenous (IV) injection according to body weight.
Tumor volume and body weight were measured twice weekly from Day 6 to Day 60 after EOL-1 implant. Tumors were measured by caliper and the volumes of tumors were calculated using the following formula:
Tumor Volume=[length (mm)×width (mm)^2]/2; where the length and the width are the longest and shortest diameters of the tumor respectively.

B1: pivekimab sunirine (conjugate, chains of the INN, looked up)
VH: QVQLVQSGAEVKKPGASVKVSCKASGYIFTSSIMHWVRQAPGQGLEWIGYIKPYNDGTKYNEKFKGRATLTSDRSTSTAYMELSSLRSEDTAVYYCAREGGNDYYDTMDYWGQGTLVTVSS
VL: EIQMTQSPSSLSASVGDRVTITCRASQDINSYLSWFQQKPGKAPKTLIYRVNRLVDGVPSRFSGSGSGNDYTLTISSLQPEDFATYYCLQYDAFPYTFGQGTKVEIK
modifications: sunirine payload
Q: B1 was tested. Which “Cytotoxicity (Viability IC50) HPAEC” value (HPAEC) did it give?
A: 6.0 µg/mL

Q: And the “Cytotoxicity (Viability IC50) HUVEC” value (HUVEC)?
A: 6.9 µg/mL

Q: And the “Cytotoxicity (Viability IC50) K562” value (K562)?
A: 10.3 µg/mL

Q: And the “Cytotoxicity (Viability IC50) RPMI-8226” value (RPMI-8226)?
A: 53.9 µg/mL

Q: What about the “anti-tumor effect (tumor volume)” value [1] of the same molecule?
A: complete tumor regression
